# Data as given in patent US5688511, “Cellular protein TDP-43 and regulation of HIV-1 gene expression” (Board of Regents, The University of Texas System).
# What was measured:
# GST-TDP-43 (7-414) [1] = molecular target: T1, GST-TDP-43 (7-414) (Homo sapiens, UniProt Q13148 SEQ:7-414); test: competition; up to 50x excess did not significantly compete; listed as -46/-13 in Example 8; settings: tags: N-terminal GST
# [2] = molecular target: T2, TDP-43 full length (thrombin-cleaved) (Homo sapiens, UniProt Q13148 SEQ:1-414); test: competition; 50x excess did not compete UV crosslinking; settings: tags: GST removed by thrombin
# GST-TDP-43 (7-414) [3] = molecular target: T1, GST-TDP-43 (7-414); test: competition; up to 50x excess did not compete; settings: tags: N-terminal GST
# GST-TDP-43 (7-414) [4] = molecular target: T1, GST-TDP-43 (7-414); test: competition; up to 50x excess did not significantly compete; settings: tags: N-terminal GST
# [5] = molecular target: T2, TDP-43 full length (thrombin-cleaved); test: UV crosslinking; settings: tags: GST removed by thrombin
# GST-TDP-43 (7-166) = GST-TDP-43 (7-166) (Homo sapiens, UniProt Q13148 SEQ:7-166); test: EMSA; only first RNP-1 retained; bound, affinity higher when both RNP1 and RNP2 present; settings: tags: N-terminal GST; label: 32P
# GST-TDP-43 (7-333) = GST-TDP-43 (7-333) (Homo sapiens, UniProt Q13148 SEQ:7-333); test: EMSA; glycine-rich domain truncation; bound like wild type; settings: tags: N-terminal GST; label: 32P
# GST-TDP-43 (7-198) = GST-TDP-43 (7-198) (Homo sapiens, UniProt Q13148 SEQ:7-198); test: EMSA; part of RNP domain deleted; still bound; settings: tags: N-terminal GST; label: 32P
# GST-TDP-43 (7-240) = GST-TDP-43 (7-240) (Homo sapiens, UniProt Q13148 SEQ:7-240); test: EMSA; glycine-rich domain deleted; bound like wild type; settings: tags: N-terminal GST; label: 32P
# [6] = molecular target: T2, TDP-43 full length (thrombin-cleaved); test: UV crosslinking, 43 and 86 kDa species, 160 or 800 ng protein; settings: tags: GST removed by thrombin; label: 32P
# GST-TDP-43 (7-414) [7] = molecular target: T1, GST-TDP-43 (7-414); test: EMSA; 50 mM KCl, 5 mM MgCl2, room temperature; competed by 5-50x unlabeled WT; settings: tags: N-terminal GST; label: 32P
# T1 sequence (Q13148 7-414): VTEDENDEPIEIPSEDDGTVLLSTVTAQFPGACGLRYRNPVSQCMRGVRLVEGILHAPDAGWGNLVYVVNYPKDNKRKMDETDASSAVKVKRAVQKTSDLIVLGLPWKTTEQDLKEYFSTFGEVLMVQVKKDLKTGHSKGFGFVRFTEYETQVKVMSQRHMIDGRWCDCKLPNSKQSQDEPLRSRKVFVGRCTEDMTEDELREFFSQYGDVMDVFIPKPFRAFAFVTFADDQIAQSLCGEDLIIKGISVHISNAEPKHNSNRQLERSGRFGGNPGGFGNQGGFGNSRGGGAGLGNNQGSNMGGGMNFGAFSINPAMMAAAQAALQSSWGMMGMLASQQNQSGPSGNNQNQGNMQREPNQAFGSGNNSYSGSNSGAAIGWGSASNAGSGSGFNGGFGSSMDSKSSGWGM
# T2 sequence (Q13148 whole entry): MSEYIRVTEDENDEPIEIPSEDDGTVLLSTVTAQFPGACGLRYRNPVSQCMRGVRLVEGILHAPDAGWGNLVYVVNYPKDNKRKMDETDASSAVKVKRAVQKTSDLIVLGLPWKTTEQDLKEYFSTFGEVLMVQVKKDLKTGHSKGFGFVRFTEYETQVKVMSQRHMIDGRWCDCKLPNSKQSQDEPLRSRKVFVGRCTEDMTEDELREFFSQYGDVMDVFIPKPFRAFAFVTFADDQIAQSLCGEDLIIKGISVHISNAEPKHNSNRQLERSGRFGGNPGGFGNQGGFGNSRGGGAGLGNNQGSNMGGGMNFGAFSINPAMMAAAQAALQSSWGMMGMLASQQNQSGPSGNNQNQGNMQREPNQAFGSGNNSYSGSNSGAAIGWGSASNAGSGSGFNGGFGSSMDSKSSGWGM
# Chain of GST-TDP-43 (7-166) (Q13148 7-166): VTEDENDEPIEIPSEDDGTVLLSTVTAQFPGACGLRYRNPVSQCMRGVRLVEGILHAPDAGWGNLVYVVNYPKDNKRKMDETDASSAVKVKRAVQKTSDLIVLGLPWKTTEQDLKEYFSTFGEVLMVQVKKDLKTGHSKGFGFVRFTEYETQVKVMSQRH
# Chain of GST-TDP-43 (7-333) (Q13148 7-333): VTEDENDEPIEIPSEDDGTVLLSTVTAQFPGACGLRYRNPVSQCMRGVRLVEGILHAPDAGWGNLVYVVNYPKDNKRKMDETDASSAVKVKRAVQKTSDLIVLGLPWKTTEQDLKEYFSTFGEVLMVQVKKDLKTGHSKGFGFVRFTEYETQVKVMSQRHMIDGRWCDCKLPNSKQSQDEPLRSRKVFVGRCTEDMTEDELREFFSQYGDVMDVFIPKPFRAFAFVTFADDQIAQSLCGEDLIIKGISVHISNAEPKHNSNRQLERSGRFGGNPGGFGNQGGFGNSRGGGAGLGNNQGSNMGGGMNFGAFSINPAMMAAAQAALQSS
# Chain of GST-TDP-43 (7-240) (Q13148 7-240): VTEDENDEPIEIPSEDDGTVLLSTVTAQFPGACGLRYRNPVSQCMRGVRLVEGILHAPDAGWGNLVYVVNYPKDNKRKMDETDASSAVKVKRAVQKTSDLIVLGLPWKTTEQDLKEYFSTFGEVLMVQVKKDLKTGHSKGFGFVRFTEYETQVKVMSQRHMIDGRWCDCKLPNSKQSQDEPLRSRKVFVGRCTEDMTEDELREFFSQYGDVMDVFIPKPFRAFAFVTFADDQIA
# Chain of GST-TDP-43 (7-198) (Q13148 7-198): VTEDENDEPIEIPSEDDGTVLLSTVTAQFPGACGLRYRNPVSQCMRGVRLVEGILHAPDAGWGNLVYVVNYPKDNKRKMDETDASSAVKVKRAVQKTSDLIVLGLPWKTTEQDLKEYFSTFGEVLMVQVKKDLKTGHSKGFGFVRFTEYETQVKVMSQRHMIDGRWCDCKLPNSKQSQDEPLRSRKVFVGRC
binder,measurement,setting,value
HIV-1 LTR -45/-13 (dsDNA) DNA 1: GCGTGCCTCAGATGCTGCATATAAGCAGCTGCTTT DNA 2: AAAGCAGCTGCTTATATGCAGCATCTGAGGCACGC,binding result,GST-TDP-43 (7-414) [1],no binding
HIV-1 LTR -18/+28 delta1+delta2 (dsDNA) DNA 1: CTGACGTACGTACGTACGTACATGCGTACGTTACGGACCATCT DNA 2: AGATGGTCCGTAACGTACGCATGTACGTACGTACGTACGTCAG,binding result,[2],no binding
same,binding result,GST-TDP-43 (7-414) [3],no binding
HIV-1 LTR -45/+1 (dsDNA) DNA 1: GCGTGCCTCAGATGCTGCATATAAGCAGCAGCTGCTTTTTGCCTGTACT DNA 2: AGTACAGGCAAAAAGCAGCTGCTGCTTATATGCAGCATCTGAGGCACGC,binding result,GST-TDP-43 (7-414) [4],no binding
HIV-1 LTR -18/+28 delta1 (dsDNA) DNA 1: CTGACGTACGTACGTACTGGGTCTCTCTGGTTAGACCAGATCT DNA 2: AGATCTGGTCTAACCAGAGAGACCCAGTACGTACGTACGTCAG,binding result,[5],no binding
same,binding result,GST-TDP-43 (7-414) [3],no binding
HIV-1 LTR -18/+28 (TAR DNA) WT (dsDNA) DNA 1: CTGCTTTTTGCCTGTACTGGGTCTCTCTGGTTAGACCAGATCTGAG DNA 2: CTCAGATCTGGTCTAACCAGAGAGACCCAGTACAGGCAAAAAGCAG,binding result,GST-TDP-43 (7-166),binds
same,binding result,GST-TDP-43 (7-333),binds
same,binding result,GST-TDP-43 (7-198),binds
same,binding result,GST-TDP-43 (7-240),binds
same,binding result,[6],binds
same,binding result,GST-TDP-43 (7-414) [7],binds
HIV-1 LTR -18/+28 delta2 (dsDNA) DNA 1: CTGCTTTTTGCCTGTACGTACATGCGTACGTTAGACCAGATCT DNA 2: AGATCTGGTCTAACGTACGCATGTACGTACAGGCAAAAAGCAG,binding result,[5],no binding
same,binding result,GST-TDP-43 (7-414) [3],no binding
HIV-1 LTR +10/+50 (dsDNA) DNA 1: GGTTAGACCAGATCTGAGCCTGGGAGCTCTCTGGCTAACTAG DNA 2: CTAGTTAGCCAGAGAGCTCCCAGGCTCAGATCTGGTCTAACC,binding result,GST-TDP-43 (7-414) [4],no binding
AdMLP TATA (dsDNA) DNA 1: AAGGGGGGCTATAAAAGGGGGTGGGGG DNA 2: CCCCCACCCCCTTTTATAGCCCCCCTT,binding result,GST-TDP-43 (7-414) [3],no binding
